These results are taken from US20240042051A1, “MCL-1 INHIBITOR ANTIBODY-DRUG CONJUGATES AND METHODS OF USE” (Novartis AG, priority 2020, published 2024).

In assay [1] the target is Cynomolgus Monkey CD48 (recombinant, CynoCD48 aa29-217) (cynomolgus monkey (Macaca fascicularis)). As to the kind of experiment: SPR Biacore T200, antibody captured on protein A chip, CD48 as analyte, 25 °C, 1:1 model. In general terms: In SPR one partner is held on a chip, and binding of the other changes the refractive index at the surface.
The next assay deals with 2249 (Homo sapiens) (UniProt P09326). As to the kind of experiment: ELISA, HEK293T culture supernatant (1:10) with the CD48-mouse Ig construct, antibody at 25, 250 and 500 ng/mL, detection goat anti-mouse IgG (H+L) HRP, Mean OD450-570. In general terms: An ELISA detects its analyte on a solid surface through an enzyme-linked reagent.
The target of assay [2] is hCD48EC:mouse-Ig (non-mutated human CD48-mouse IgG1 fusion protein) (human) (UniProt P09326). The assay is described as above.
Chain of hCD48EC:mouse-Ig (non-mutated human CD48-mouse IgG1 fusion protein) (human) (P09326 27-220, change not shown): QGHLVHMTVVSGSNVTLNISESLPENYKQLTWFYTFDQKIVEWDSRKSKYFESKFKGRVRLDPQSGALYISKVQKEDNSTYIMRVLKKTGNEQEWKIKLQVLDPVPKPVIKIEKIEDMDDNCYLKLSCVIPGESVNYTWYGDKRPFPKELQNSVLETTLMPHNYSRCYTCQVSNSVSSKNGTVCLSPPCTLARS

Chain of 2249 (Homo sapiens) (P09326 27-220): as the sequence (P09326 27-220, change not shown) above

B1: NY938 (antibody, human IgG1, kappa, V domains shown)
VH: QVQLVQSGAEVKKPGASVKVSCKASGYTFTEYTMHWVRQAPGQGLEWMGGINPDTGDTSYNQKFTGRATLTVDKSTSTAYMELSSLRSEDTAVYYCARAQFWTTPRFAYWGQGTLVTVSS
VL: DIQMTQSPSSLSASVGDRVTITCKASQDVGTAVAWYQQKPGKVPKLLIYWASTRHTGVPSRFSGSGSGTDFTLTISSLQPEDVATYYCQQYSTYPITFGQGTKLEIKR
In general, Kd refers to the free concentration of one partner at which half of the binding sites on the other are occupied at equilibrium, for simple one-to-one binding. For orientation: koff means the rate constant with which the complex falls apart. Broadly, the kon is a measure of how fast the partners come together. B1: in assay [1], the Kd was 1.5 nM, the dissociation rate constant (koff) turned out to be 0.00037 s⁻¹ and the association rate constant (kon) stood at 250000 M⁻¹ s⁻¹.

B2: humanized CD48A (antibody, V domains shown)
VH: QVQLVQSGSELKKPGASVKVSCKASGYTFTDFGMNWVRQAPGQGLEWMGWINTFTGEPSYGNVFKGRFVFSLDTSVSTAYLQISSLKAEDTAVYYCARRHGNGNVFDSWGQGTLVTVSS
VL: EIVLTQSPDFQSVTPKEKVTITCRASQSIGSNIHWYQQKPDQSPKLLIKYTSESISGVPSRFSGSGSGTDFTLTINSLEAEDAATYYCQQSNSWPLTFGGGTKVEIKR
By EC50 (read off the curve) is commonly meant the midpoint of the concentration-response curve. As for B2, the EC50 (read off the curve) with 2249 (Homo sapiens) stood at 30 ng/mL; in assay [2] it was 20 ng/mL.
